In the supplement of paper PMC10598134 one finds collision cross section data, which are given here for 59 sequences.

The nature of the data set: collision cross section of modified peptide (TIMS, N2, iRT-aligned); higher = larger / more extended gas-phase ion. The essentials: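 On a timsTOF Pro/HT (dda-PASEF, nitrogen, ~2.4 mbar), synthetic peptide pools were analysed after a 120-min nanoflow C18 separation at 60 °C and identified in MaxQuant. Three reference ions served for 1/K0 calibration, with run-wise alignment to the median iRT peptide deviation. Collision cross section comes from the Mason-Schamp equation, using the most abundant feature per charge state averaged over 1–3 technical replicates.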

[1] abbreviates: charge state: 2, modification: GlyGly (K).
Setting [2] is: charge state: 3, modification: GlyGly (K).
Where [3] appears, read: charge state: 2, modification: Malonyl.
Where [4] appears, read: charge state: 3, modification: Malonyl.
[5] abbreviates: charge state: 2, modification: Methyl (K).
The mark [6] stands for this setting: charge state: 3, modification: Methyl (K).
[7] abbreviates: charge state: 2, modification: Succinyl.
The mark [8] stands for this setting: charge state: 2, modification: hydroxyisobutyryl.
Setting [9] is: charge state: 2, modification: Hydroxyproline.
Setting [10] is: charge state: 2, modification: Acetyl (K).
Where [11] appears, read: charge state: 2, modification: Biotin.
[12] abbreviates: charge state: 2, modification: Butyryl.
[13] abbreviates: charge state: 2, modification: Crotonyl.
The mark [14] stands for this setting: charge state: 2, modification: Dimethyl (K).
Setting [15] is: charge state: 3, modification: Dimethyl (K).
Setting [16] is: charge state: 2, modification: Formyl.
Setting [17] is: charge state: 2, modification: Glutarylation.
Setting [18] is: charge state: 2, modification: Propionyl.
Setting [19] is: charge state: 3, modification: Succinyl.
Setting [20] is: charge state: 2, modification: Trimethyl (K).
[21] abbreviates: charge state: 3, modification: Trimethyl (K).
Where [22] appears, read: charge state: 3, modification: Acetyl (K).
The mark [23] stands for this setting: charge state: 3, modification: Butyryl.
[24] abbreviates: charge state: 3, modification: Crotonyl.
Setting [25] is: charge state: 3, modification: Glutarylation.

± gives the standard deviation.

For “LGVATVAKGVCGACK [_LGVATVAK(GlyGly (K))GVCGACK_]”, the collision cross section reads like this: under setting [1], 453.34 ± 1.4 Å²; under setting [2], 497.41 ± 0.34 Å².
In the case of “LGVATVAKGVCGACK [_LGVATVAK(Malonyl)GVCGACK_]”, the collision cross section turned out to be 416.08 ± 0.71 Å² under setting [3] and 487.74 Å² under setting [4].
As to “LGVATVAKGVCGACK [_LGVATVAK(Methyl (K))GVCGACK_]”, the collision cross section reads like this: under setting [5], 433.3 ± 0.37 Å²; under setting [6], 457.05 ± 3.9 Å².
For “LGVATVAKGVCGACK [_LGVATVAK(Succinyl)GVCGACK_]”, the collision cross section under setting [7] came out at 417.57 ± 0.55 Å².
For “LGVATVAKGVCGACK [_LGVATVAK(hydroxyisobutyryl)GVCGACK_]”, under setting [8], the collision cross section is given as 419.46 ± 1.2 Å².
With “LGVPGLPGYPGR [_LGVPGLPGYP(Hydroxyproline)GR_]”, the collision cross section under setting [9] amounted to 362.53 ± 0.8 Å².
As to “LGVPGLPGYPGRQGPK [_LGVPGLP(Hydroxyproline)GYPGRQGPK_]”, the collision cross section reads like this: under setting [9], 416.79 ± 1.1 Å²; (charge state: 3, modification: Hydroxyproline) 499.55 ± 1.2 Å².
As to “LLALSGPGGGRGR [_LLALSGPGGGR(Citrullination (R))GR_]”, the collision cross section is, setting by setting: (charge state: 2, modification: Citrullination (R)) 366.92 ± 1 Å²; (charge state: 3, modification: Citrullination (R)) 440.81 ± 17 Å².
With “LLALSGPGGGRGR [_LLALSGPGGGR(Methyl (R))GR_]”, the collision cross section is, setting by setting: (charge state: 2, modification: Methyl (R)) 387.94 ± 0.53 Å²; (charge state: 3, modification: Methyl (R)) 446.53 ± 3.2 Å².
Turning to LLEEEDSKLK [_LLEEEDSK(Acetyl (K))LK_], the collision cross section under setting [10] is listed as 378.84 ± 0.45 Å².
Sequence LLEEEDSKLK [_LLEEEDSK(Biotin)LK_] displayed a collision cross section under setting [11] of 405.12 ± 2.5 Å².
Under setting [12], LLEEEDSKLK [_LLEEEDSK(Butyryl)LK_] displayed a collision cross section of 385.99 ± 0.85 Å².
On to LLEEEDSKLK [_LLEEEDSK(Crotonyl)LK_], for which the collision cross section under setting [13] turned out to be 386.83 ± 0.27 Å².
For LLEEEDSKLK [_LLEEEDSK(Dimethyl (K))LK_], the collision cross section came out at 385.27 ± 0.26 Å² under setting [14] and 435.11 ± 2.1 Å² under setting [15].
The sequence LLEEEDSKLK [_LLEEEDSK(Formyl)LK_] displayed a collision cross section under setting [16] of 374.12 ± 0.55 Å².
On to “LLEEEDSKLK [_LLEEEDSK(Gluratylation)LK_]”, for which the collision cross section under setting [17] is on record as 387.79 ± 0.61 Å².
Regarding LLEEEDSKLK [_LLEEEDSK(GlyGly (K))LK_], the collision cross section was determined as 386.87 ± 0.88 Å² under setting [1] and 453.7 ± 1.6 Å² under setting [2].
The sequence LLEEEDSKLK [_LLEEEDSK(Malonyl)LK_] gave a collision cross section under setting [3] of 379.46 ± 1.1 Å².
Take LLEEEDSKLK [_LLEEEDSK(Methyl (K))LK_]: the collision cross section runs as follows: under setting [5], 382.93 ± 0.7 Å²; under setting [6], 439.97 ± 5.9 Å².
Under setting [18], LLEEEDSKLK [_LLEEEDSK(Propionyl)LK_] came in with a collision cross section of 383.32 ± 0.94 Å².
As for LLEEEDSKLK [_LLEEEDSK(Succinyl)LK_], the collision cross section by setting is: under setting [7], 381.87 ± 0.24 Å²; under setting [19], 464.35 Å².
For the sequence “LLEEEDSKLK [_LLEEEDSK(Trimethyl (K))LK_]”, the collision cross section is 388.34 ± 1.1 Å² under setting [20] and 441.46 ± 2.4 Å² under setting [21].
As to “LLEEEDSKLK [_LLEEEDSK(hydroxyisobutyryl)LK_]”, the collision cross section under setting [8] amounted to 385.85 ± 5.2 Å².
LLEQKTQESQK [_LLEQK(Acetyl (K))TQESQK_]: the collision cross section under setting [10] was 392.69 ± 0.79 Å².
On to LLEQKTQESQK [_LLEQK(Biotin)TQESQK_], for which, under setting [11], the collision cross section stood at 419.49 ± 1.1 Å².
LLEQKTQESQK [_LLEQK(Butyryl)TQESQK_]: the collision cross section under setting [12] was determined as 398.26 ± 0.79 Å².
The sequence LLEQKTQESQK [_LLEQK(Crotonyl)TQESQK_] gave a collision cross section under setting [13] of 398.38 ± 1.1 Å².
As for “LLEQKTQESQK [_LLEQK(Dimethyl (K))TQESQK_]”, the collision cross section under setting [14] was 409.09 ± 1.6 Å² and the collision cross section under setting [15] was 453.46 ± 1.6 Å².
LLEQKTQESQK [_LLEQK(Formyl)TQESQK_] came in with a collision cross section under setting [16] of 386.78 ± 0.55 Å².
In the case of “LLEQKTQESQK [_LLEQK(Gluratylation)TQESQK_]”, under setting [17], the collision cross section turned out to be 402.96 ± 0.5 Å².
Take LLEQKTQESQK [_LLEQK(GlyGly (K))TQESQK_]: the collision cross section is 410.36 ± 1.9 Å² under setting [1] and 452.18 ± 1.1 Å² under setting [2].
LLEQKTQESQK [_LLEQK(Malonyl)TQESQK_] gave a collision cross section under setting [3] of 397.91 ± 0.65 Å².
On to LLEQKTQESQK [_LLEQK(Methyl (K))TQESQK_], for which the collision cross section by setting is: under setting [5], 404.61 ± 2.3 Å²; under setting [6], 458.64 ± 4.9 Å².
Regarding LLEQKTQESQK [_LLEQK(Propionyl)TQESQK_], the collision cross section under setting [18] was determined as 393.54 ± 0.65 Å².
The sequence LLEQKTQESQK [_LLEQK(Succinyl)TQESQK_] registered a collision cross section under setting [7] of 400.32 ± 0.77 Å².
For the sequence “LLEQKTQESQK [_LLEQK(Trimethyl (K))TQESQK_]”, the collision cross section is 409.98 ± 2.2 Å² under setting [20] and 452.07 ± 1.5 Å² under setting [21].
Under setting [8], “LLEQKTQESQK [_LLEQK(hydroxyisobutyryl)TQESQK_]” showed a collision cross section of 401.39 ± 0.81 Å².
In the case of “LLFSNTAAQKLR [_LLFSNTAAQK(Acetyl (K))LR_]”, the collision cross section under setting [10] was 400.1 ± 2.9 Å² and the collision cross section under setting [22] was found to be 478.35 ± 0.83 Å².
Consider LLFSNTAAQKLR [_LLFSNTAAQK(Biotin)LR_], for which the collision cross section by setting is: under setting [11], 418.21 ± 1.1 Å²; (charge state: 3, modification: Biotin) 503.51 Å².
For LLFSNTAAQKLR [_LLFSNTAAQK(Butyryl)LR_], the collision cross section is, setting by setting: under setting [12], 405.4 ± 0.23 Å²; under setting [23], 483.12 ± 3.2 Å².
Consider LLFSNTAAQKLR [_LLFSNTAAQK(Crotonyl)LR_], for which the collision cross section under setting [13] is 404.43 ± 0.55 Å² and the collision cross section under setting [24] came out at 483.58 ± 1.6 Å².
Turning to “LLFSNTAAQKLR [_LLFSNTAAQK(Dimethyl (K))LR_]”, the collision cross section runs as follows: under setting [14], 419.08 ± 0.75 Å²; under setting [15], 473.77 ± 2.6 Å².
In the case of LLFSNTAAQKLR [_LLFSNTAAQK(Formyl)LR_], under setting [16], the collision cross section is 395.38 ± 0.55 Å².
For “LLFSNTAAQKLR [_LLFSNTAAQK(Gluratylation)LR_]”, the collision cross section by setting is: under setting [17], 406.85 ± 0.6 Å²; under setting [25], 487.13 ± 1.7 Å².
Consider “LLFSNTAAQKLR [_LLFSNTAAQK(GlyGly (K))LR_]”, for which the collision cross section by setting is: under setting [1], 433.64 ± 0.96 Å²; under setting [2], 492.29 ± 2 Å².
LLFSNTAAQKLR [_LLFSNTAAQK(Malonyl)LR_] registered a collision cross section under setting [3] of 400.72 ± 0.029 Å².
“LLFSNTAAQKLR [_LLFSNTAAQK(Methyl (K))LR_]” had a collision cross section under setting [5] of 416.21 ± 1.5 Å² and a collision cross section under setting [6] of 479.76 ± 3.4 Å².
Take LLFSNTAAQKLR [_LLFSNTAAQK(Succinyl)LR_]: the collision cross section is 404.93 ± 0.55 Å² under setting [7] and 482.98 ± 3.3 Å² under setting [19].
As for “LLFSNTAAQKLR [_LLFSNTAAQK(Trimethyl (K))LR_]”, the collision cross section by setting is: under setting [20], 428.25 ± 0.6 Å²; under setting [21], 480.65 ± 2.4 Å².
For “LLFSNTAAQKLR [_LLFSNTAAQK(hydroxyisobutyryl)LR_]”, the collision cross section is recorded as 408.17 ± 0.55 Å² under setting [8] and 486.85 ± 1.9 Å² (charge state: 3, modification: hydroxyisobutyryl).
Turning to “LLIVSTTPYSEKDTK [_LLIVSTTPYSEK(Acetyl (K))DTK_]”, the collision cross section reads like this: under setting [10], 449.39 ± 2.3 Å²; under setting [22], 486.31 ± 3 Å².
Under setting [11], “LLIVSTTPYSEKDTK [_LLIVSTTPYSEK(Biotin)DTK_]” displayed a collision cross section of 480.64 Å².
As to “LLIVSTTPYSEKDTK [_LLIVSTTPYSEK(Butyryl)DTK_]”, the collision cross section is, setting by setting: under setting [12], 459.06 ± 0.51 Å²; under setting [23], 488.4 ± 2.4 Å².
On to “LLIVSTTPYSEKDTK [_LLIVSTTPYSEK(Crotonyl)DTK_]”, for which the collision cross section under setting [13] is 458.47 ± 1.4 Å² and the collision cross section under setting [24] came out at 486.79 ± 2.7 Å².
Sequence “LLIVSTTPYSEKDTK [_LLIVSTTPYSEK(Dimethyl (K))DTK_]” had a collision cross section under setting [14] of 459.41 ± 1.9 Å² and a collision cross section under setting [15] of 505.24 ± 1.6 Å².
Sequence “LLIVSTTPYSEKDTK [_LLIVSTTPYSEK(Formyl)DTK_]” displayed a collision cross section under setting [16] of 448.09 ± 0.69 Å² and a collision cross section (charge state: 3, modification: Formyl) of 480.73 ± 1.5 Å².
The sequence “LLIVSTTPYSEKDTK [_LLIVSTTPYSEK(Gluratylation)DTK_]” registered a collision cross section under setting [17] of 462.31 ± 1.5 Å² and a collision cross section under setting [25] of 493.7 ± 1.3 Å².
For “LLIVSTTPYSEKDTK [_LLIVSTTPYSEK(GlyGly (K))DTK_]”, the collision cross section came to 461.81 ± 0.94 Å² under setting [1] and 515.54 ± 1.1 Å² under setting [2].
With “LLIVSTTPYSEKDTK [_LLIVSTTPYSEK(Malonyl)DTK_]”, the collision cross section under setting [3] came to 454.81 ± 0.99 Å² and the collision cross section under setting [4] is given as 468.47 ± 1.2 Å².
